# Assay results: patent US20170253670A1 (Hoffmann-La Roche, published 2017)
# T1: MUC1 SEA-avi-His, biotinylated (human, biotin on avi tag)
# T1 construct: E. coli derived; also called MUC1 antigen; SEA domain of human MUC1
# T1 chain: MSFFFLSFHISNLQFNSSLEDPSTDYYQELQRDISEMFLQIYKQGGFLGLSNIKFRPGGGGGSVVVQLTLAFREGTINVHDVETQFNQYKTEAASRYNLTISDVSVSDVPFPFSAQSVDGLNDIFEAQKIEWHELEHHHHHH
# B1: Mov19 FolR1 TCB 2+1 inverted (bispecific antibody)
# chain 1: not shown
# chain 2: QVQLQQSGAELVKPGASVKISCKASGYSFTGYFMNWVKQSHGKSLEWIGRIHPYDGDTFYNQNFKDKATLTVDKSSNTAHMELLSLTSEDFAVYYCTRYDGSRAMDYWGQGTTVTVSSASTKGPSVFPLAPSSKSTSGGTAALGCLVKDYFPEPVTVSWNSGALTSGVHTFPAVLQSSGLYSLSSVVTVPSSSLGTQTYICNVNHKPSNTKVDKKVEPKSCDKTHTCPPCPAPEAAGGPSVFLFPPKPKDTLMISRTPEVTCVVVDVSHEDPEVKFNWYVDGVEVHNAKTKPREEQYNSTYRVVSVLTVLHQDWLNGKEYKCKVSNKALGAPIEKTISKAKGQPREPQVCTLPPSRDELTKNQVSLSCAVKGFYPSDIAVEWESNGQPENNYKTTPPVLDSDGSFFLVSKLTVDKSRWQQGNVFSCSVMHEALHNHYTQKSLSLSPGK
# chain 3: DIELTQSPASLAVSLGQRAIISCKASQSVSFAGTSLMHWYHQKPGQQPKLLIYRASNLEAGVPTRFSGSGSKTDFTLNIHPVEEEDAATYYCQQSREYPYTFGGGTKLEIKRTVAAPSVFIFPPSDEQLKSGTASVVCLLNNFYPREAKVQWKVDNALQSGNSQESVTEQDSKDSTYSLSSTLTLSKADYEKHKVYACEVTHQGLSSPVTKSFNRGEC
# B2: 21A5 IgG (antibody, V domains shown)
# VH: not shown
# VL: QAVVTQEPSLTVSPGGTVTLTCGSSTGAVTTSNYANWVQEKPGQAFRGLIGGTNKRAPGTPARFSGSLLGGKAALTLSGAQPEDEAEYYCALWYSNLWVFGGGTKLTVL
# notes: human IgG1
# B3: 16D5 IgG (antibody, V domains shown)
# VH: not shown
# VL: B2 VL
# notes: human IgG1
# B4: 58D6 MUC1-specific CLC TCB (bispecific antibody)
# heavy 1: not shown
# heavy 2: not shown
# light: QAVVTQEPSLTVSPGGTVTLTCGSSTGAVTTSNYANWVQEKPGQAFRGLIGGTNKRAPGTPARFSGSLLGGKAALTLSGAQPEDEAEYYCALWYSNLWVFGGGTKLTVLRTQPKAAPSVTLFPPSSEELQANKATLVCLISDFYPGAVTVAWKADSSPVKAGVETTTPSKQSNNKYAASSYLSLTPEQWKSHRSYSCQVTHEGSTVEKTVAPTECS
# notes: also called 58D6 TCB
# B5: 110A5 MUC1-specific CLC TCB (bispecific antibody)
# heavy 1: not shown
# heavy 2: not shown
# light: B4 light
# notes: also called 110A5 TCB
# Key:
# [1] = target: human FolR1 on cells (HeLa, SKOV3, HT-29, transfected HEK) (human, UniProt P15328 25-234); assay: cell-based or functional assay
# [2] = target: T2, cyno FolR1 on transiently transfected HEK cells (cynomolgus); assay: flow cytometry on HEK cells transiently transfected with cyno FolR1, fluorescently labeled anti-human secondary antibody
# T2 construct: whole, on cells; also called cyFolR1
# Experimental: Cross-reactivity of the FolR1 antibodies to cyno FolR1 was addressed on HEK cells transiently transfected with cyFolR1 by flow cytometry. The antibodies were detected with a fluorescently labeled anti-human secondary antibody.
# Target cells as indicated were harvested with Cell Dissociation Buffer, washed with PBS and resuspended in FACS buffer. The antibody staining was performed in a 96well round bottom plate. Therefore 200′000 cells were seeded per well. The plate was centrifuged for 4 min at 400 g and the supernatant was removed. The test antibodies were diluted in FACS buffer and 20 μl of the antibody solution were added to the cells for 30 min at 4° C.
# [3] = target: T1, MUC1 SEA-avi-His, biotinylated; assay: SPR (ProteOn XPR36), biotinylated MUC1 on NLC chip, TCB as analyte
# Experimental: Binding of the produced MUC1-specific TCBs was measured by surface plasmon resonance using a ProteOn XPR36 instrument (Biorad) at 25° C. Biotinylated MUC1 antigen and an unrelated biotinylated antigen were immobilized on NLC chips by neutravidin capture. Immobilization of the antigens was performed as described before. […] Buffer (PBST) was injected along the sixth channel to provide an “in-line” blank for referencing.
# Regeneration was performed in horizontal orientation using 10 mM Glycine, pH 1.5 at a flow rate of 100 ul/min for a contact time of 30 s.
# human FolR1 on cells (HeLa, SKOV3, HT-29, transfected HEK), sequence (P15328 25-234): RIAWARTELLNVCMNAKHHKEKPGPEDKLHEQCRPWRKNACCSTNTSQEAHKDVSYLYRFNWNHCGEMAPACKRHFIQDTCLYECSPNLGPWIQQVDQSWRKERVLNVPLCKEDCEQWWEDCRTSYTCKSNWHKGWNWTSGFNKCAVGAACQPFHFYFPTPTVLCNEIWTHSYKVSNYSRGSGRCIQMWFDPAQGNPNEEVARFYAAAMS
Binder,EC50 (read off the curve) [2],binding result [3],other results
B1,,,"EC50 killing 24 h, SKov-3 [1]: 0.75 pM; EC50 killing 48 h, SKov-3 [1]: 0.05 pM"
B2,~6 µg/mL,,
B3,~7 µg/mL,,
B4,,binds,
B5,,binds,
